# Positions count from the first letter of the chain named. Names may count otherwise. “And” between values parts separate entries of the source, which are not always exact repeats. Equal entries are not always repeated.
# B1: H11-A10 (VHH)
# VHH: QVQLVESGGGLMQAGGSLRLSCAVSGRTFSTAAMGWFRQAPGKEREFVAAIRWSGGSAYYADSVKGRFTISRDKAKNTVYLQMNSLKYEDTAVYYCAGFSATRSLLSDYATWPYDYWGQGTQVTVSS
# B2: H11-H4 Y104S (VHH)
# VHH: B1 VHH with G98Q, F99T, S100H, A101Y, T102V, R103S
# B3: nanobody H11-H6 (VHH)
# VHH: B1 VHH with F99S, S100K, A101I
# B4: H11-B5 (VHH)
# VHH: B1 VHH with G98S, F99Y, S100Q
# B5: nanobody H11-A10 (VHH)
# VHH: B1 VHH
# B6: H11-H4 Y101A (VHH)
# VHH: B1 VHH with G98Q, F99T, S100H, T102V, R103S, S104Y
# B7: nanobody H11-H4 R52K (VHH)
# VHH: B1 VHH with R52K, G98Q, F99T, S100H, A101Y, T102V, R103S, S104Y
# B8: nanobody H11-H4 R52A (VHH)
# VHH: B1 VHH with R52A, G98Q, F99T, S100H, A101Y, T102V, R103S, S104Y
# B9: H11-H6 (VHH)
# VHH: B1 VHH with F99S, S100K, A101I
# B10: H11-H4 Q98R H100E (D4 hybrid) (VHH)
# VHH: B1 VHH with G98R, F99T, S100E, A101Y, T102V, R103S, S104Y
# B11: H11 V101Y R103S (VHH)
# VHH: B1 VHH with G98Q, F99T, S100R, A101Y, R103S
# B12: H11-H4 Y104F (VHH)
# VHH: B1 VHH with G98Q, F99T, S100H, A101Y, T102V, R103S, S104F
# B13: nanobody H11-H4 R52E (VHH)
# VHH: B1 VHH with R52E, G98Q, F99T, S100H, A101Y, T102V, R103S, S104Y
# B14: nanobody H11-B5 (VHH)
# VHH: B1 VHH with G98S, F99Y, S100Q
# Experiments:
# Conditions in all cases: both partners purified
# RBD-Fc [1] = molecular target: T1, RBD-Fc (SARS-CoV-2, wild-type RBD (P0DTC2 …)); assay: SPR; […]; Biacore T200, PBS pH 7.4 with 0.005% P20, 25 °C; 1:1 binding model; […]
# T1 construct: also called RBD (immobilized as RBD-Fc on the chip)
# [2] = molecular target: T2, biotinylated RBD (wild type) (SARS-CoV-2, wild-type RBD (P0DTC2 …)); assay: SPR; […]; Biacore T200, PBS pH 7.4 with 0.005% P20, 25 °C; […]
# RBD-Fc [3] = molecular target: RBD-Fc (SARS-CoV-2, wild-type RBD (P0DTC2 …)); assay: SPR; Biacore T200, PBS pH 7.4 with 0.005% P20, 25 °C; […]; 1:1 binding model
# biotinylated RBD = biotinylated RBD (SARS-CoV-2, wild-type RBD (P0DTC2 …)); assay: SPR; Biacore T200, PBS pH 7.4 with 0.005% P20, 25 °C; […]
# [4] = molecular target: T2, biotinylated RBD (wild type); assay: SPR; […]; Biacore T200, PBS pH 7.4 with 0.005% P20, 25 °C; kinetic fit, 1:1 binding model; […]
binder,measurement,setting,value
B1,Kd,RBD-Fc [1],9.2 nM and 9.3 nM
same,koff,RBD-Fc [1],0.055 s⁻¹ and 0.047 s⁻¹
same,kon,RBD-Fc [1],5.9e+06 M⁻¹ s⁻¹ and 5e+06 M⁻¹ s⁻¹
B2,Kd,[2],273 nM
B3,t1/2,RBD-Fc [3],25 s
B4,Kd,RBD-Fc [1],8.8 nM and 7.6 nM
same,koff,RBD-Fc [1],0.051 s⁻¹ and 0.046 s⁻¹
same,kon,RBD-Fc [1],5.8e+06 M⁻¹ s⁻¹ and 6.1e+06 M⁻¹ s⁻¹
B5,t1/2,RBD-Fc [3],14 s
B6,Kd,[2],791 nM
B7,binding result,biotinylated RBD,no binding
B8,binding result,biotinylated RBD,no binding
B9,Kd,RBD-Fc [1],8.1 nM and 8.3 nM
same,koff,RBD-Fc [1],0.032 s⁻¹ and 0.025 s⁻¹
same,kon,RBD-Fc [1],3.9e+06 M⁻¹ s⁻¹ and 3e+06 M⁻¹ s⁻¹
B10,Kd,[4],4.3 nM and 4.8 nM
same,koff,[4],0.024 s⁻¹ and 0.025 s⁻¹
same,kon,[4],5.5e+06 M⁻¹ s⁻¹ and 5.2e+06 M⁻¹ s⁻¹
B11,Kd,[2],1700 nM
B12,Kd,[4],37.4 nM and 33.2 nM
same,koff,[4],0.072 s⁻¹ and 0.074 s⁻¹
same,kon,[4],1.9e+06 M⁻¹ s⁻¹ and 2.2e+06 M⁻¹ s⁻¹
B13,binding result,biotinylated RBD,no binding
B14,t1/2,RBD-Fc [3],14 s

# From publication PMC9351521 (Proceedings of the National Academy of Sciences of the …, 2022)
